Assay results published in patent US20100041068A1, “DEEPLY QUENCHED ENZYME SENSORS AND BINDING SENSORS” (priority 2006, published 2010).
Non-standard residues stand in square brackets, D forms with d. Primed or numbered codes have the meaning given here. No end group written: not given here. *: point of attachment. Acetyl(1-pyrenyl) = O=C(Cc1ccc2ccc3cccc4ccc1c2c34)*; Aoc′ = aminooctanoic acid linker; pS = N[C@@H](COP(=O)(O)O)C(=O)O; Abu = CC[C@H](N)C(=O)O; AEEA = NCCOCCOCC(=O)O; Ava = NCCCCC(=O)O; βAla = NCCC(=O)O

Key:
peptide P2 = experiment: Apparent KD of lead quencher dyes with peptide P2 (quenching of pyrene fluorescence); assay type: binding; details: 5 μM pyrene-labeled P2 peptide, dye 0.5-500 μM, 100 mM Tris HCl pH 75, inner filter corrected
Description: KD values were acquired for the set of the ten lead quenchers with peptide P2, in order to obtain a target range for the quencher:peptide ratios to be employed in the subsequent assays (vide infra). These apparent KD values were determined using the quenching of pyrene fluorescence as a barometer of peptide/quencher complex stability. […] An inner filter effect (at high dye concentrations) was corrected as previously described^8.
Acquisition of Apparent KD Values for Lead Quencher Dyes with Peptide P2 (FIG. 2).

[1] = biological target: 14-3-3τ (phospho-Ser binding domain) (UniProt P27348); experiment: cell-based or functional assay
[2] = biological target: T1, cAMP-dependent protein kinase (PKA) (Mus musculus, UniProt P05132); experiment: Control: phosphorylation-induced change in fluorescence of pyrene-labeled peptides in the absence of quenching dye; assay type: biochemical, murine; set-up: made in house; details: 5 μM peptide, 10 nM PKA, 10 μM 14-3-3τ, 1 mM ATP
Description: 2 Identification of the lead pyrene-peptide/quencher pair. The eleven pyrene-substituted peptides (P1-P11 at 5 μM) were incubated with a 5-, 10-, 25-, and 50-fold molar excess of each of the ten lead quenchers in the presence of PKA, ATP, and the phospho-Ser binding domain 14-3-3τ. Several control experiments were performed, including conducting the assay in the absence of quenching agent. Under the latter conditions, only small enhancements in fluorescence (0-64%) were observed (Supporting Information). […] Consequently, the background was subtracted from all readings to establish a baseline upon which changes in fluorescence intensity could be quantified (Supporting Information).
Screening of Lead Quenching Dyes 1-10 with […]. […] The concentrations per well were: 10 nM PKA, 5 μM peptide, 10 μM 14-3-3τ, 1 mM ATP, 5 mM MgCl2, 2 mM DTT, and 25 μM, 50 μM, […] each of 10 different lead dyes in 50 mM Tris at pH 7.5 buffer. The HTS 7000 Bio Assay Reader was set in kinetic mode to monitor the progress of reaction (340 nm excitation filter, […] emission filter, 100 μs and 5 flashes).

[3] = biological target: T1, cAMP-dependent protein kinase (PKA); experiment: PKA inhibitor IC50, standard radioactive ATP method; assay type: biochemical
[4] = biological target: T1, cAMP-dependent protein kinase (PKA); experiment: PKA inhibitor IC50, Deep Quench method (Ponceau S/peptide P2, 14-3-3τ); assay type: biochemical, murine; set-up: made in house; details: [ATP]=1 mM, 1 μM P2, 60 μM Ponceau S, 10 nM PKA
Description: This step was used to adjust for inter-assay variability and to verify that no significant drop in enzyme activity occurs over the course of the determinations. Subsequently, inhibitor was added at different concentrations. […] Fractional velocities (v/v0) were plotted against inhibitor concentration [I] and fit using the Sigma Plot version 8.02 software's four-parameter logistic nonlinear regression analysis.

peptide P5 = experiment: Apparent KD of lead quencher/peptide pair, Rose Bengal with peptide P5; assay type: binding
[5] = biological target: phosphorylated P5 peptide AcDap(Pyr)RTGRRFS(PO3^2−)YP-amide; experiment: Apparent KD of Rose Bengal with phosphorylated P5 peptide; assay type: binding
[6] = biological target: T2, 14-3-3τ (phospho-Ser binding domain) (UniProt P27348 1-245); experiment: cell-based or functional assay
T2 sequence (looked up): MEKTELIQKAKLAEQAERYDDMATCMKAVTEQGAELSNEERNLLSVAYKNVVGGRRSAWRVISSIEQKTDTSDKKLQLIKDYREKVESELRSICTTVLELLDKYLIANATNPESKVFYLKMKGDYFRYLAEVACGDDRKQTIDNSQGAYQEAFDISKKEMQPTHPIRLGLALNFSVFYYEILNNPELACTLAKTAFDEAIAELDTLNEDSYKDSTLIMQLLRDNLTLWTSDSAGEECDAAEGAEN

Molecule	Kd (peptide P2) [µM]	% Fluorescence Enhancement [2] [%]	also measured
O=S(=O)(O)c1ccc(/N=N/c2ccc(/N=N/c3c(O)c(S(=O)(=O)O)cc4cc(S(=O)(=O)O)ccc34)c(S(=O)(=O)O)c2)cc1 [Peptide D42, Ponceau S]	11.2 ± 2.7		
Nc1ccc(N=Nc2ccc(-c3ccc(N=Nc4c(S(=O)(=O)O)cc5cc(S(=O)(=O)O)c(N=Nc6ccccc6)c(O)c5c4N)cc3)cc2)c(N)c1 [Peptide D34, Chlorazol Black E]	7.7 ± 1.5		
phosphorylated peptide P4, Ac-GRDap(Pyr)GRRFSYP-amide after phosphorylation of Ser by PKA			% Fluorescence Enhancement (phosphorylation-induced, PKA + ATP + 14-3-3τ, no quenching dye) [1]: 40%
Ac-Gly-Arg-Thr-Gly-Arg-Arg-Phe-Ser-Dap(Pyr)-Pro-amide [Peptide P1]		0	
phosphorylated peptide P2, Ac-GRTGRRDap(Pyr)SYP-amide after phosphorylation of Ser by PKA			% Fluorescence Enhancement (phosphorylation-induced, PKA + ATP + 14-3-3τ, no quenching dye) [1]: 51%; Fluorescence Change (phosphorylation-induced fold-change), P2/Ponceau S (1:50), plate reader - bottom read [1]: 7 fold; Fluorescence Change (phosphorylation-induced fold-change), P2/Ponceau S (1:50), plate reader - top read [1]: 15 fold; Fluorescence Change (phosphorylation-induced fold-change), P2/Ponceau S (1:50), spectrofluorimeter [1]: 21 fold
Pyr-Aoc-Gly-Arg-Thr-Gly-Arg-Arg-Phe-Ser-Tyr-Pro-amide ({Acetyl(1-pyrenyl)-Aoc′}-GRTGRRFSYP-NH2) [Peptide P10]		39	
Pyr-Ava-Gly-Arg-Thr-Gly-Arg-Arg-Phe-Ser-Tyr-Pro-amide ({Acetyl(1-pyrenyl)-Ava}-GRTGRRFSYP-NH2; SMILES C[C@@H](O)[C@H](NC(=O)[C@H](CCCNC(=N)N)NC(=O)CNC(=O)CCCCNC(=O)Cc1ccc2ccc3cccc4ccc1c2c34)C(=O)NCC(=O)N[C@@H](CCCNC(=N)N)C(=O)N[C@@H](CCCNC(=N)N)C(=O)N[C@@H](Cc1ccccc1)C(=O)N[C@@H](CO)C(=O)N[C@@H](Cc1ccc(O)cc1)C(=O)N1CCC[C@H]1C(N)=O) [Peptide P8]		31	
Pyr-miniPEG™-Gly-Arg-Thr-Gly-Arg-Arg-Phe-Ser-Tyr-Pro-amide ({Acetyl(1-pyrenyl)-AEEA}-GRTGRRFSYP-NH2; SMILES C[C@@H](O)[C@H](NC(=O)[C@H](CCCNC(=N)N)NC(=O)CNC(=O)COCCOCCNC(=O)Cc1ccc2ccc3cccc4ccc1c2c34)C(=O)NCC(=O)N[C@@H](CCCNC(=N)N)C(=O)N[C@@H](CCCNC(=N)N)C(=O)N[C@@H](Cc1ccccc1)C(=O)N[C@@H](CO)C(=O)N[C@@H](Cc1ccc(O)cc1)C(=O)N1CCC[C@H]1C(N)=O) [Peptide P11]		38	
Cc1cc(-c2ccc(/N=N/c3ccc4c(S(=O)(=O)O)cc(S(=O)(=O)O)c(N)c4c3O)c(C)c2)ccc1/N=N/c1ccc2c(S(=O)(=O)O)cc(S(=O)(=O)O)c(N)c2c1O [Peptide D3, Evans Blue]	2.8 ± 0.8		
Ac-Gly-Arg-Thr-Dap(Pyr)-Arg-Arg-Phe-Ser-Tyr-Pro-amide [Peptide P3]		19	
Cc1cc(-c2ccc(/N=N/c3c(S(=O)(=O)O)cc4cc(S(=O)(=O)O)cc(N)c4c3O)c(C)c2)ccc1/N=N/c1c(S(=O)(=O)O)cc2cc(S(=O)(=O)O)cc(N)c2c1O [Peptide D48, Trypan Blue]	11.9 ± 3.6		
Ac-Gly-Arg-Dap(Pyr)-Gly-Arg-Arg-Phe-Ser-Tyr-Pro-amide [Peptide P4]		40	
Pyr-BAla-Gly-Arg-Thr-Gly-Arg-Arg-Phe-Ser-Tyr-Pro-amide ({Acetyl(1-pyrenyl)}-[βAla]GRTGRRFSYP-NH2; SMILES C[C@@H](O)[C@H](NC(=O)[C@H](CCCNC(=N)N)NC(=O)CNC(=O)CCNC(=O)Cc1ccc2ccc3cccc4ccc1c2c34)C(=O)NCC(=O)N[C@@H](CCCNC(=N)N)C(=O)N[C@@H](CCCNC(=N)N)C(=O)N[C@@H](Cc1ccccc1)C(=O)N[C@@H](CO)C(=O)N[C@@H](Cc1ccc(O)cc1)C(=O)N1CCC[C@H]1C(N)=O) [Peptide P6]		49	
phosphorylated peptide P5, AcDap(Pyr)RTGRRFS(PO3^2-)YP-amide			% Fluorescence Enhancement (phosphorylation-induced, PKA + ATP + 14-3-3τ, no quenching dye) [1]: 64%; Fluorescence Change (phosphorylation-induced fold-change), P5/Rose Bengal (1:5), plate reader - bottom read [1]: 8 fold; Fluorescence Change (phosphorylation-induced fold-change), P5/Rose Bengal (1:5), plate reader - top read [1]: 30 fold; Fluorescence Change (phosphorylation-induced fold-change), P5/Rose Bengal (1:5), spectrofluorimeter [1]: 64 fold
O=C(O)c1nn(-c2ccc(S(=O)(=O)O)cc2)c(O)c1N=Nc1ccc(S(=O)(=O)O)cc1 [Peptide D47, Tartrazine]	15 ± 2.1		
Reactive Blue 2 [Peptide D6]	19.6 ± 3.4		
Pyr-Abu-Gly-Arg-Thr-Gly-Arg-Arg-Phe-Ser-Tyr-Pro-amide ({Acetyl(1-pyrenyl)}-[Abu]GRTGRRFSYP-NH2; SMILES CC[C@H](NC(=O)Cc1ccc2ccc3cccc4ccc1c2c34)C(=O)NCC(=O)N[C@@H](CCCNC(=N)N)C(=O)N[C@H](C(=O)NCC(=O)N[C@@H](CCCNC(=N)N)C(=O)N[C@@H](CCCNC(=N)N)C(=O)N[C@@H](Cc1ccccc1)C(=O)N[C@@H](CO)C(=O)N[C@@H](Cc1ccc(O)cc1)C(=O)N1CCC[C@H]1C(N)=O)[C@@H](C)O) [Peptide P7]		47	
GRTGRRNAI-NH2 (C-terminus assumed) [PKI 14-22]			IC50 [3]: 1.6 ± 0.2 µM; IC50 [4]: 1.1 ± 0.1 µM
O=C(O)c1c(Cl)c(Cl)c(Cl)c(Cl)c1-c1c2cc(I)c(=O)c(I)c-2oc2c(I)c(O)c(I)cc12 [Peptide D43, Rose Bengal]	7.5 ± 1.6		Kd (peptide P5; Rose Bengal with unphosphorylated AcDap(Pyr)RTGRRFSYP-amide (P5)): 0.4 ± 0.03 µM; Kd (peptide P5; Rose Bengal with unphosphorylated peptide P5): 0.4 ± 0.03 µM; Kd [5]: 0.21 ± 0.04 µM
phosphorylated peptide P3, Ac-GRTDap(Pyr)RRFSYP-amide after phosphorylation of Ser by PKA			% Fluorescence Enhancement (phosphorylation-induced, PKA + ATP + 14-3-3τ, no quenching dye) [1]: 19%
O=[N+]([O-])c1ccc2c(N=Nc3ccc4ccccc4c3O)c(O)cc(S(=O)(=O)O)c2c1 [Peptide D18, Eriochrome Black T]	14.3 ± 3.3		
GRTGRRF[pS]YP (also: 7-diethylaminocoumarin-3-carboxylic acid label, site not given here) [coumarin-peptide P12 after phosphorylation]			enhancement in fluorescence (16 µM P12, 10 µM 14-3-3, 30 µM Acid Green 27) [6]: 225 fold
